Biological target: T1, purified recombinant murine IL9, 125I labelled (murine, UniProt P15247, 125I label)
T1 sequence: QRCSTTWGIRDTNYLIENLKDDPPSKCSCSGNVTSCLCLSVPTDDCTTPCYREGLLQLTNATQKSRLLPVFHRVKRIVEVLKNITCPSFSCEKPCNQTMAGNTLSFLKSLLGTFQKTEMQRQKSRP
Assay: Scatchard analysis on transfected COS cells
Experimental: In order to make sure that clone p9RA1 and all subsequent clones did in fact express IL9R. Scatchard analysis was carried out on transfected COS cells, following Goodwin et al., Cell 60: 941–951 (1990). […] This is slightly higher than the dissociation constant measured on TS1 cells previously, i.e., 67 pM.

| Binder | Kd [nM] |
| --- | --- |
| murine IL-9 receptor encoded by clone p9RA1 (receptor) VSVPEQGGGGQKAGAFTCLSNSIYRIDCHWSAPELGQESRAWLLFTSNQVTEIKHKCTFWDSMCTLVLPFEEVFLPFDNFTITLHRCIMGQEQVSLVDSQYLPRRHIKLDPPSDLQSNVSSGRCVLTWGINLALEPLITSLSYELAFKRQEEAWEQARHKDRIVGVTWLILEAVELNPGSIYEARLRVQMTLESYEDKTEGEYYKSHWSEWSQPVSFPSPQRRQGLLVPRWQWSASILVVVPIFLLLTGFVHLLFKLSPRLKRIFYQNIPSPEAFFHPLYSVYHGDFQSWTGARRAGPQARQNGVSTSSAGSESSIWEAVATLTYSPACPVQFACLKWEATA | 0.194 |
| murine IL-9 receptor encoded by clone p9RC4 (receptor) VSVPEQGGGGQKAGAFTCLSNSIYRIDCHWSAPELGQESRAWLLFTSNQVTEIKHKCTFWDSMCTLVLPFEEVFLPFDNFTITLHRCIMGQEQVSLVDSQYLPRRHIKLDPPSDLQSNVSSGRCVLTWGINLALEPLITSLSYELAFKRQEEAWEARHKDRIVGVTWLILEAVELNPGSIYEARLRVQMTLESYEDKTEGEYYKSHWSEWSQPVSFPSPQRRQGLLVPRWQWSASILVVVPIFLLLTGFVHLLFKLSPRLKRIFYQNIPSPEAFFHPLYSVYHGDFQSWTGARRAGPQARQNGVSTSSAGSESSIWEAVATLTYSPACPVQFACLKWEATAPGFPGLPGSEHVLPAGCLELEGQPSAYLPQEDWAPLGSARPPPPDSDSGSSDYCMLDCCEECHLSAFPGHTESPELTLAQPVALPVSSRA | 0.126 |
